# Laboratory results as given in patent publication US20190033318A1 (UNIVERSITY OF SOUTHAMPTON, published 2019).
# Starred links: 1 amine or outer side, 2 acyl side, 3 side chain; linkers in the order of their positions; H or OH if unused. Non-standard residues stand in square brackets, D forms with d. Tyr(Me) = 4-methoxyphenylalanine (O-methyl-tyrosine), COc1ccc(C[C@H](N[*:1])C(=O)[*:2])cc1; FITC‑maleimide = fluorescein isothiocyanate-maleimide label on the cysteine; Tyr(3-NO2) = N[C@@H](Cc1ccc(O)c([N+](=O)[O-])c1)C(=O)O; Phe(4-NO2) = N[C@@H](Cc1ccc([N+](=O)[O-])cc1)C(=O)O; Phe(4-CN) = N#Cc1ccc(C[C@H](N)C(=O)O)cc1; Phe(4-Cl) = N[C@@H](Cc1ccc(Cl)cc1)C(=O)O; Phe(4-F) = N[C@@H](Cc1ccc(F)cc1)C(=O)O; Phe(4-Me) = Cc1ccc(C[C@H](N)C(=O)O)cc1; Cha = N[C@@H](CC1CCCCC1)C(=O)O; Pal = not defined here
# B1: CRAIIF (peptide)
# peptide: CRAIIF
# notes: also called alanine scan peptide of CRVIIF, position 3 (V to A)
# B2: cyclo-CRLLIF (SEQ ID NO 3) (peptide)
# peptide: CRLLIF
# modifications: cyclic peptide (cyclo-, first amino acid joined to the last)
# notes: One of the 4 cyclic peptide hits of the SICLOPPS screen; made by solid phase synthesis; also called CRLLIX where X = F
# B3: CRLLI(4-MeO-F) (peptide)
# peptide: cyclo(CRLLI[Tyr(Me)])
# SMILES: CC[C@H](C)[C@@H]1NC(=O)[C@H](CC(C)C)NC(=O)[C@H](CC(C)C)NC(=O)[C@H](CCCNC(=N)N)NC(=O)[C@H](CS)NC(=O)[C@H](Cc2ccc(OC)cc2)NC1=O
# notes: also called CRLLIX where X = 4-MeO-F
# B4: CRLLI(3-NO2-Y) (peptide)
# peptide: cyclo(CRLLI[Tyr(3-NO2)])
# SMILES: CC[C@H](C)[C@@H]1NC(=O)[C@H](CC(C)C)NC(=O)[C@H](CC(C)C)NC(=O)[C@H](CCCNC(=N)N)NC(=O)[C@H](CS)NC(=O)[C@H](Cc2ccc(O)c([N+](=O)[O-])c2)NC1=O
# notes: also called CRLLIX where X = 3-NO2-Y
# Experiments:
# [1] = target: T1, 1α PASB (HIF-1α PASB domain, 238-349) (UniProt Q16665 238-349, labelled with NT-647-NHS dye in MST); experiment: competition ELISA: 1α PASB on Ni plate, peptide titrated, blocked partner GST-1β; the value stands in the panel without a name, the ELISA fits give IC50; the fall is only partial
# T1 construct: range 238-349; not shown: His6 tag of vector pET28, then Met
# Protocol: (§1) 25 μL of His-tagged HIF-α protein (either Trx-1α, Trx-2α, 1α PASB, or 2α PASB) at 0.1 μM in HIF assay buffer were added to individual wells of a Pierce Ni²⁺-coated 96-well plate (Thermo) in triplicate. The plate was rocked gently at room temperature for 1 hr, before washing with 3×200 μL assay buffer (5 min incubation per wash). 25 μL of compounds and/or DMSO at the stated concentrations were added to the plate and allowed to equilibrate for 30 min prior to the addition of 25 μL of GST-1β at 0.2 μM in assay buffer for 1 hr. For conditions in which no compound or DMSO were used, GST-1β was added as a 0.1 μM solution. After incubation with GST-1β, the wells were washed with 3×200 μL assay buffer then 1×200 μL PBS. The wells were then incubated with 100 μL mouse α-GST antibody (Thermo, MS-707-P) at a 1/1000 dilution in PBS supplemented with 0.1% Tween-20 (PBST) and 2% non-fat powdered milk (Marvel) for 1 hr, followed by 3×200 μL washed with PBS. 100 μL of secondary HRP-conjugated α-mouse antibody (GE Healthcare) was added at a 1/6000 dilution in 2% milk/PBST for 1 hr, then washed with 3×200 μL PBS. […] Absorbance was read at 450 nm using a Tecan Infinite M200 Pro plate reader. Data were fitted and IC₅₀ values determined by non-linear regression using GraphPad Prism 6.
# [2] = target: T1, 1α PASB (HIF-1α PASB domain, 238-349); experiment: MST, HIF-1α PASB domain
# [3] = target: T2, 2α PASB (HIF-2α PASB domain, 240-350) (UniProt Q99814 240-350, labelled with NT-647-NHS dye in MST; 15N (and 13C 15N) labelled in NMR); experiment: MST, HIF-2α PASB domain
# T2 construct: range 240-350; also called PAS B domain of HIF-2α; not shown: His6 tag of vector pET28, then Met
# T2 sequence (Q99814 240-350): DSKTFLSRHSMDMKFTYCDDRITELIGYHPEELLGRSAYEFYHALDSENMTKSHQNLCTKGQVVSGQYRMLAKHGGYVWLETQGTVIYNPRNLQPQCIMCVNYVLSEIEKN
# [4] = target: T3, Trx-1α (thioredoxin-tagged HIF-1α 1-350, bHLH-PASA-PASB) (UniProt Q16665 1-350); experiment: thermal shift assay, 1 mM peptide
# T3 construct: range 1-350; not shown: Thioredoxin-His6 tag of vector pET32
# Protocol: (§2) Thermal denaturation of HIF proteins was performed in 20 μL reactions in triplicate using a Bio-Rad CFX Connect Real-Time System. Proteins were used at either 5 μM (Trx-1α, Trx-2α and GST-1β) or 15 μM (His-tagged PASB domains) in HIF assay buffer, with 10 mM DTT and SYPRO orange dye (Life Technologies) at a final concentration of 8×(relative to 5000×stock), and supplemented with either DMSO or compound dissolved in DMSO at the stated concentrations. The reaction plate was assembled on ice, then transferred to the pre-chilled thermal cycler, held at 10° C. for 5 min (heated lid, 105° C.), then the temperature ramped to 95° C. Fluorescence was recorded at 0.5° C. increments, holding for 5 sec at each temperature. Data were plotted using GraphPad Prism 6, and melting temperatures calculated using the first derivative method in which the peak (i.e. the steepest transition between data points) represents the point at which 50% of the protein sample is denatured. Errors are quoted as the inherent error associated with the first derivative of the data, i.e. ±0.25° C. for Tₘ values and ±0.5° C. for ΔTₘ values.
# [5] = target: T4, Trx-2α (thioredoxin-tagged HIF-2α 1-360, bHLH-PASA-PASB) (UniProt Q99814 1-360); experiment: thermal shift assay, 1 mM peptide
# T4 construct: range 1-360; not shown: Thioredoxin-His6 tag of vector pET32
# T4 sequence (Q99814 1-360): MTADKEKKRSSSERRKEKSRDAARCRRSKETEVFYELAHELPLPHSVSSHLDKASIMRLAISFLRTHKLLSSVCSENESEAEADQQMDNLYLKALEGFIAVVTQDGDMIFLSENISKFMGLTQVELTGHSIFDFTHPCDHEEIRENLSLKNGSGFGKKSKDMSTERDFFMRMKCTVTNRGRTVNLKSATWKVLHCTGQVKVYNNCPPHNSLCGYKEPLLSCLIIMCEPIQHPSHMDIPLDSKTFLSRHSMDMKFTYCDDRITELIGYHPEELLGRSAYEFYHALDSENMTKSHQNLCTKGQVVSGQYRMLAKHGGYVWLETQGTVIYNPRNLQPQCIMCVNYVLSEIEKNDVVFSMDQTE
# Protocol: as §2
# [6] = target: T1, 1α PASB (HIF-1α PASB domain, 238-349); experiment: thermal shift assay, 1 mM peptide
# Protocol: as §2
# [7] = target: T2, 2α PASB (HIF-2α PASB domain, 240-350); experiment: thermal shift assay, 1 mM peptide
# Protocol: as §2
# [8] = target: T5, 1β PASB (HIF-1β PASB domain, 356-474) (UniProt P27540 356-474); experiment: thermal shift assay, 1 mM peptide
# T5 construct: range 356-474; not shown: His6 tag of vector pET28
# T5 sequence (P27540 356-474): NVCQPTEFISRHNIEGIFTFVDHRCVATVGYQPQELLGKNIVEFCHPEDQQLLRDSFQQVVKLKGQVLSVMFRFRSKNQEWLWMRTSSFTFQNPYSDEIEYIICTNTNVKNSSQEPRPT
# Protocol: as §2
# [9] = target: T6, HIF-1α (construct not given) (UniProt Q16665 1-350, limits assumed); experiment: HIF-1 ELISA, inhibition of HIF-1α/HIF-1β dimerisation
# T6 construct: also called HIF-1 ELISA
# Protocol: (§3) 25 μL of His-tagged HIF-α protein (either Trx-1α, Trx-2α, 1α PASB, or 2α PASB) at 0.1 μM in HIF assay buffer were added to individual wells of a Pierce Ni²⁺-coated 96-well plate (Thermo) in triplicate. The plate was rocked gently at room temperature for 1 hr, before washing with 3×200 μL assay buffer (5 min incubation per wash). 25 μL of compounds and/or DMSO at the stated concentrations were added to the plate and allowed to equilibrate for 30 min prior to the addition of 25 μL of GST-1β at 0.2 μM in assay buffer for 1 hr. For conditions in which no compound or DMSO were used, GST-1β was added as a 0.1 μM solution. After incubation with GST-1β, the wells were washed with 3×200 μL assay buffer then 1×200 μL PBS. The wells were then incubated with 100 μL mouse α-GST antibody (Thermo, MS-707-P) at a 1/1000 dilution in PBS supplemented with 0.1% Tween-20 (PBST) and 2% non-fat powdered milk (Marvel) for 1 hr, followed by 3×200 μL washed with PBS. 100 μL of secondary HRP-conjugated α-mouse antibody (GE Healthcare) was added at a 1/6000 dilution in 2% milk/PBST for 1 hr, then washed with 3×200 μL PBS. Wells were incubated with 100 μL of 1-Step Ultra TMB-ELISA solution (Thermo) until a blue colour developed (typically 10-15 min) and the reaction was stopped by the addition of 100 μL of a ⅕ dilution of conc. H₂SO₄, which turned the solution yellow. Absorbance was read at 450 nm using a Tecan Infinite M200 Pro plate reader. Data were fitted and IC₅₀ values determined by non-linear regression using GraphPad Prism 6.
# [10] = target: T7, HIF-2α (construct not given) (UniProt Q99814 1-360, limits assumed); experiment: HIF-2 ELISA, inhibition of HIF-2α/HIF-1β dimerisation
# T7 construct: also called HIF-2 ELISA
# T7 sequence (Q99814 1-360 limits assumed): as the sequence (Q99814 1-360) above
# Protocol: as §3
# [11] = target: T1, 1α PASB (HIF-1α PASB domain, 238-349); experiment: MST, peptide titrated into fluorescently labelled 1α PASB
# Protocol: (§4) Microscale thermophoresis (MST) was performed to determine Kd of peptide binding to fluorescently labelled HIF-1α/2α PASB domains.
# (§5) 0.5 mL of 1α or 2α PASB protein stocks in HIF storage/assay buffer were dialysed against 1 L of MST labelling buffer (100 mM NaHCO₃ pH 8, 150 mM NaCl and 5% glycerol) for 1.5 hr at 4° C., then against 1 L of fresh labelling buffer at 4° C. overnight. 100 μL of each dialysed protein diluted to 10 μM were incubated with 100 μL of 30 μM NT-647-NHS dye (NanoTemper protein labelling kit) for 20 min in the dark, then exchanged into 650 μL HIF assay buffer supplemented with 0.05% Tween-20 using the supplied gravity flow purification columns. A dilution series of cyclo-CRVIIF (SEQ ID NO 4) or alanine scan analogues (in HIF assay buffer, 10% DMSO) was mixed with equal volumes of labelled 1α PASB or 2α PASB at 100 nM and allowed to equilibrate for 10 min. Samples were loaded into hydrophilic capillaries and, after optimising the power, MST was performed using a Monolith […] instrument (NanoTemper). Data were analysed using NT Analysis Software using the Temperature Jump analysis mode.
# [12] = target: T2, 2α PASB (HIF-2α PASB domain, 240-350); experiment: MST, peptide titrated into fluorescently labelled 2α PASB
# Protocol: as §4, §5
# [13] = target: T3, Trx-1α (thioredoxin-tagged HIF-1α …); experiment: competition ELISA: His-tagged Trx-1α on Ni plate, peptide titrated, binding of GST-1β (blocked partner) detected with anti-GST, A450
# Protocol: (§6) IC₅₀ values for the compound=3.7 μM/8.8 μM for 1α/2α.
# as §1
# [14] = target: T4, Trx-2α (thioredoxin-tagged HIF-2α …); experiment: competition ELISA: His-tagged Trx-2α on Ni plate, peptide titrated, binding of GST-1β (blocked partner) detected with anti-GST, A450
# Protocol: as §6, §1
# [15] = target: T1, 1α PASB (HIF-1α PASB domain, 238-349); experiment: MST, peptide titrated into labelled PAS-B domain of HIF-1α
# [16] = target: T2, 2α PASB (HIF-2α PASB domain, 240-350); experiment: MST, peptide titrated into labelled PAS-B domain of HIF-2α
# [17] = target: T7, HIF-2α (construct not stated at the …); experiment: HIF-2 ELISA, inhibition of HIF-2α/HIF-1β dimerisation; remark: listed apart in the source
Binder,Kd [2],Kd [3],IC50 [9],IC50 [10],also measured
B1,,,,,IC50 [1]: 51 µM
B2,36.9 µM,15.4 µM,71.3 µM,98.3 µM,ΔTm [4]: 0.5 ° C.; ΔTm [5]: -4 ° C.; ΔTm [6]: -2 ° C.; ΔTm [7]: -4 ° C.; ΔTm [8]: -1 ° C.; Kd [11]: 13.5 µM; Kd [12]: 59.6 µM; IC50 [13]: 102 µM; IC50 [14]: 186 µM
CRLLIW (cyclic analogue of cyclo-CRLLIF),7.7 µM,9.6 µM,,,
cyclo(CRLLI[Phe(4-Me)]) (also called CRLLIX where X = 4-Me-F) [CRLLI(4-Me-F)],9.61 µM,5.27 µM,11.9 µM,6.07 µM,Kd [15]: 11.4 µM; Kd [16]: 5.4 µM
cyclo(CRLLI[Cha]) (also called CRLLIX where X = Cha) [CRLLI(Cha)],1.37 µM,5.63 µM,25.5 µM,19.8 µM,Kd [15]: 4.1 µM; Kd [16]: 5.8 µM
cyclo(CRLLI[Phe(4-Cl)]) (also called CRLLIX where X = 4-Cl-F) [CRLLI(4-Cl-F)],2.8 µM,4.15 µM,13.2 µM,4.88 µM,Kd [16]: 4.2 µM
cyclo(C(FITC‑maleimide)RLLIF) [FITC-CRLLIF (SEQ ID NO 3)],,,,,Activity as measured by a HIF-2 ELISA [17]: 0.47 µM
cyclo(C(FITC‑maleimide)KLIIF) [FITC-CKLIIF (SEQ ID NO 2)],,,,,Activity as measured by a HIF-2 ELISA [17]: 0.77 µM
"SGWEMIQRR (cyclic peptide (first amino acid joined to the last), One of the 4 cyclic peptide hits) [cyclo-SGWEMIQRR (SEQ ID NO 5)]",,,,,ΔTm [4]: -2.5 ° C.; ΔTm [8]: -0.5 ° C.
cyclo(CRLLI[Phe(4-F)]) (also called CRLLIX where X = 4-F-F) [CRLLI(4-F-F)],6.84 µM,7.41 µM,37.5 µM,11.5 µM,
cyclo(CRLLI[Phe(4-CN)]) (also called CRLLIX where X = 4-CN-F) [CRLLI(4-CN-F)],10 µM,9.46 µM,44.2 µM,6.27 µM,
cyclo(CRLLI[Phe(4-NO2)]) (also called CRLLIX where X = 4-NO2-F) [CRLLI(4-NO2-F)],3.73 µM,5.76 µM,27.8 µM,12 µM,
B3,10.8 µM,4.5 µM,36.7 µM,15.3 µM,
B4,90.7 µM,49 µM,19.5 µM,22.7 µM,
"cyclo(CRLLI[Pal]) (not fully specified; printed as CRLLI(Pal); reading uncertain, also called CRLLIX where X = Pal) [CRLLI(Pal)]",69.2 µM,45.3 µM,294 µM,212 µM,
